These results are taken from patent US20140314744A1 (NEOTOPE BIOSCIENCES, published 2014).

For orientation: Kd means the constant that tells how readily two partners part at equilibrium.

For test [1], the target named is T1, Recombinant human laminin-α4 (R&D systems) (human, UniProt Q16363-2 826-1816).
T1 construct: also called laminin 4A chain; laminin A4 (α4) chain
T1 sequence (looked up): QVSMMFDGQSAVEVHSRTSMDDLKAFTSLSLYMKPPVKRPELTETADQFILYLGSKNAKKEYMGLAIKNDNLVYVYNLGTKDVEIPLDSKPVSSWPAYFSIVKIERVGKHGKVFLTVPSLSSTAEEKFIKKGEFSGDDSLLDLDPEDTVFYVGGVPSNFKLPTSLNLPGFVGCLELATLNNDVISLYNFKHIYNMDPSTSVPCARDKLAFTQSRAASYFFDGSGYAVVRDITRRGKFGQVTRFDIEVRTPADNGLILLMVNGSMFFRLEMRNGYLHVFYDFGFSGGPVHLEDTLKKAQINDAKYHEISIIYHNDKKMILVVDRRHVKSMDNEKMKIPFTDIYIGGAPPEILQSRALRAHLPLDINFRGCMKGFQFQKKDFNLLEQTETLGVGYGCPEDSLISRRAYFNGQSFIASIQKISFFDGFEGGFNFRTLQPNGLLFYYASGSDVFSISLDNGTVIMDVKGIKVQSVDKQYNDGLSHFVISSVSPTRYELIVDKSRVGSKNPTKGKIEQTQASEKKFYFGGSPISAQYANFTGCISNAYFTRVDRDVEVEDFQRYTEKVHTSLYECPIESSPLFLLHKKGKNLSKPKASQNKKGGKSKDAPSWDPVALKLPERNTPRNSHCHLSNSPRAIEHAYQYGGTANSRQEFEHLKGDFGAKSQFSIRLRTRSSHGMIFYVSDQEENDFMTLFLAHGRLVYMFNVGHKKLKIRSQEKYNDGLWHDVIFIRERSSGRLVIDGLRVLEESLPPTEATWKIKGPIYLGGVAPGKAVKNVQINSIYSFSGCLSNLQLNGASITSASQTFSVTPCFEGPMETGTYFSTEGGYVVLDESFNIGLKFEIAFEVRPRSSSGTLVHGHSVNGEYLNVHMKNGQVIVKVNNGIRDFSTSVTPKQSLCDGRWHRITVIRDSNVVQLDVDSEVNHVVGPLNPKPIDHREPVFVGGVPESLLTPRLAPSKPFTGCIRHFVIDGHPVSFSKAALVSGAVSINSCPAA
The test can be described thus: SPR (Biacore T200), MCAM IgG1-2A captured by anti-Fc IgG, laminin in solution. The procedure: The binding affinity of the human laminin-α4 to human MCAM IgG1-2A was measured by Surface Plasmon Resonance on a Biacore T200 machine. Human Fc-specific F(ab′)₂ IgG (Jackson Laboratories) was immobilized on a CM5 chip using amine coupling. The four flow cells of the CM5 chips dextran surface are activated by a 7 min injection of freshly prepared 1:1 50 mM NHS: EDC at a flow rate of 5 μl/min. 70 μl IgG solution (pH 4.5) was injected for 3 min to a density of up to 3 000 RU. The coupling is then blocked by a 7 min injection of 1M ethanolamine to deactivate residual reactive sites. Recombinant human Fc-tagged MCAM IgG1-2A in degassed and filtered HBS-P buffer containing 12 mg/ml BSA and 12 mg/ml carboxy-methylated dextran sodium salt was captured by anti-Fc IgG to a capture level 1560 RU. Recombinant human Fc-tagged MCAM IgG1-2A was centrifuged at 14 000 rpm for 5 min at 4° C. before injection for 20 min at a flow rate of 5 μl/min over the anti-Fc IgG containing surface. Flow cell 1 was left free of IgG to serve as a control surface. One flow cell was used to capture recombinant human IgG1 Fc (R&D systems) to serve as a negative control. […] Buffer injections served as negative control. Data evaluation: Data from the buffer injections and the control surface were subtracted to remove artifacts. […]

The target of test [2] is T2, Recombinant human laminin 511 (Biolamina) (human, UniProt O15230 36-3695; P07942 22-1786; P11047 34-1609).
T2 construct: Trimer α5β1γ1, bought; negative control
The test can be described thus: SPR (Biacore T200). On the technique in general: Surface plasmon resonance follows binding to a sensor surface in real time, without labels.

In test [3] the target is T3, mouse MCAM (full length, on transfected CHO cells) (mouse, UniProt Q8R2Y2 24-648).
T3 construct: whole, on cells; also called murine MCAM; mouse MCAM transfected CHO cells
T3 sequence (looked up): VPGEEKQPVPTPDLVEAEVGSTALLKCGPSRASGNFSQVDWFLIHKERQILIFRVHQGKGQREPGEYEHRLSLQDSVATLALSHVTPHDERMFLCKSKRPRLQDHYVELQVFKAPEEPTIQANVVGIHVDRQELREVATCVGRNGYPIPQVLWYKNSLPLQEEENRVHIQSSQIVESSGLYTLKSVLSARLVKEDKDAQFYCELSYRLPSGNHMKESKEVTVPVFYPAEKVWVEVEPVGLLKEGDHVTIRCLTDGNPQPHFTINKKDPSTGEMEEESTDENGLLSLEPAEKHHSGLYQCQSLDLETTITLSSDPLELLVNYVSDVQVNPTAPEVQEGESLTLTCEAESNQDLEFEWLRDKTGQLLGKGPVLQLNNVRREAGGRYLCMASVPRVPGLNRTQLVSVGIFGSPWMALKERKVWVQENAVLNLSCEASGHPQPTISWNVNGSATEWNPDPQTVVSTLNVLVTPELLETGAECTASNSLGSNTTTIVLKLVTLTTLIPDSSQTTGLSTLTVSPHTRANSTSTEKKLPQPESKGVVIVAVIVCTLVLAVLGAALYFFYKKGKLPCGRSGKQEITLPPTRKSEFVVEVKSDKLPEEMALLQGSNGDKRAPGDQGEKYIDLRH
Briefly: flow cytometry on MCAM transfected cells mixed with CFSE-labelled untransfected cells. The procedure:
(§1) MCAM-Fc was generated by fusing the extracellular domain of murine MCAM to human IgG and produced in CHO cells using standard techniques. Lou/M rats were immunized with 100 μg of MCAM-Fc protein in CFA (1:1 volume). Rats were boosted two times at two week intervals with MCAM-Fc protein in incomplete Freund's adjuvant (IFA) (1:1 volume). Hybridomas were generated from immunized rats using standard protocols and clones were selected by Clonepix. CHO cells were transfected with the full length murine MCAM gene and selected for stable expression using neomycin and standard techniques. Parental CHO cells (MCAM negative) were fluorescently labeled with carboxyfluorescein succinimidyl ester (CFSE) using standard techniques and mixed at a 1:1 ratio with unlabeled MCAM transfected CHO cells. Hybridoma supernatants were incubated with this mixture of cells for 30 minutes and binding of potential MCAM specific antibodies was detected with a fluorescently labeled anti-rat secondary antibody (Jackson Immuno) by flow cytometry.
(§2) Monoclonal antibodies against mouse MCAM were generated as described in Materials and Methods above. The specific binding between the monoclonal antibody and MCAM was confirmed by assessing the monoclonal antibody's ability to bind to cells transfected with either mouse or human MCAM. For this, untransfected cells were labeled with carboxyfluorescein succinimidyl ester (CFSE) and mixed with unlabeled MCAM transfected cells. Untransfected cells (in blue) could therefore be differentiated.

For test [4], the target named is T4, human MCAM (on transfected cells) (human, UniProt P43121 24-646).
T4 construct: Cells transfected with human MCAM; also called CD146; MUC18
T4 chain: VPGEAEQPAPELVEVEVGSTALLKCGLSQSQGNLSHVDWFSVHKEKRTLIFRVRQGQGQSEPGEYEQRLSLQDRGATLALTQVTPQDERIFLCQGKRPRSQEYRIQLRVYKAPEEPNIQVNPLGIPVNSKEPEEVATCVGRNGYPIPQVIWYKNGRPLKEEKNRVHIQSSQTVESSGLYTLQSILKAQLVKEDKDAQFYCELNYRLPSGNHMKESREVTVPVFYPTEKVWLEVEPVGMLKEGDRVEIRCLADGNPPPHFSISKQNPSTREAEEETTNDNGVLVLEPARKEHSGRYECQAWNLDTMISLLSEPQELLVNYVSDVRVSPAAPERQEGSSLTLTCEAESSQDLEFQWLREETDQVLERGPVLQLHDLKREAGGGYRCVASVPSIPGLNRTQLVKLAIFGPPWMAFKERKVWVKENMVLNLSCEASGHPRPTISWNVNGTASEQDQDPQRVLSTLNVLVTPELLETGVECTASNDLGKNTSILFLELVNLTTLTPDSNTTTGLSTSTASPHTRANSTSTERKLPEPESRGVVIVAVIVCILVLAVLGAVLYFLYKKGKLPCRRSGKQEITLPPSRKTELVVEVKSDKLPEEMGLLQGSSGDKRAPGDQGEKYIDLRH
The description is as above. The method, then: as §1, §2

In test [5] the target is T5, Murine MCAM domain 1 (Ig1) with human IgG Fc tag (mouse, UniProt Q8R2Y2 24-131, limits assumed).
T5 construct: domain: domain 1 (Ig1); also called MCAM Fc domain 1; not shown: human IgG Fc tag
T5 sequence (looked up): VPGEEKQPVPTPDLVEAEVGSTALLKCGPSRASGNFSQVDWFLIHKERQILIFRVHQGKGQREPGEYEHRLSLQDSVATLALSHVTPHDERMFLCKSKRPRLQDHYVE
Briefly: ForteBio Octet Red, domains on anti-human IgG Fc biosensors. From the text:
(§3) The following protocol was used: ForteBio Domain Mapping Protocol. ForteBio anti-human IgG Fc biosensors were used to immobilize various mouse MCAMhFc domains including full length mouse MCAMhFc protein on to biosensor surface. These sensors were dipped into either clone 15 or 17 MCAM specific antibody for detection of binding to these domains or full length protein. After loading these samples into a black 96 well plate, the Octet Red was programmed as follows: 60 seconds for baseline #1; 180 seconds for loading various domains; 60 seconds for baseline #2; 180 seconds for association of antibody to domain; and 240 seconds for dissociation of antibody from domain.
(In general: In BLI a coated tip is dipped into the sample, and binding shifts an interference pattern.)

For test [6], the target named is T6, Murine MCAM domain 1 and 2 (Ig1-2A) with human IgG Fc tag (mouse, UniProt Q8R2Y2 24-244, limits assumed).
T6 construct: domain: domain 1 and 2 (Ig1-2A); also called MCAM Fc domains 1 and 2; not shown: human IgG Fc tag
T6 sequence (looked up): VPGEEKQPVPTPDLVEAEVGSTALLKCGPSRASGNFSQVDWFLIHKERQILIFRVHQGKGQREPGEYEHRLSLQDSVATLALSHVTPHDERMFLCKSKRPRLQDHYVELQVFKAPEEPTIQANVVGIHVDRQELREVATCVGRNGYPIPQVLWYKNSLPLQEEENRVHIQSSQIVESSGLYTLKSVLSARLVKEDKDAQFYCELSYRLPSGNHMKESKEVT
The test is described as above.
Excerpt: as §3

Test [7] concerns the target T7, murine MCAM-Fc (extracellular domain of murine MCAM fused to human IgG) (mouse, UniProt Q8R2Y2 24-563).
T7 construct: extracellular domain; Produced in CHO cells; also called mouse MCAM-Fc protein; full length mouse MCAMhFc protein; not shown: human IgG (Fc) part
T7 sequence (looked up): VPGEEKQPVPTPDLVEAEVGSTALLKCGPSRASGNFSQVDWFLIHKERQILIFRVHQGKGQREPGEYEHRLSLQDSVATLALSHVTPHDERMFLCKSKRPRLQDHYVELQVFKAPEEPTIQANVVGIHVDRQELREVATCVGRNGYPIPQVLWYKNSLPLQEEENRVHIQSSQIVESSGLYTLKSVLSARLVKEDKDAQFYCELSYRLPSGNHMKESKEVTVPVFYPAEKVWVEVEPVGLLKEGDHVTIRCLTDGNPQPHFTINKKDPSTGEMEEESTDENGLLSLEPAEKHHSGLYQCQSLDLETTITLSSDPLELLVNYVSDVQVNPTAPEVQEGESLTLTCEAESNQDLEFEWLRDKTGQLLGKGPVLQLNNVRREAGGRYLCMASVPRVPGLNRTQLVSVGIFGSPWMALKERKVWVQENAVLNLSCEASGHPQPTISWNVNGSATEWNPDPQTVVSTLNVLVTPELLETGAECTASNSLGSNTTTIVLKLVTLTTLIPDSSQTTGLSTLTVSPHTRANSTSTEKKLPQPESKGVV
Briefly: ForteBio Octet Red, anti-human IgG Fc biosensor loaded with mouse MCAMhFc (5 ug/ml), dipped into clone 17 (5 ug/ml) or SP2 media.
Excerpt: as §3
(§4) For FIG. 10A-B, clones 15 and 17 were tested against the following protein samples (all have human IgG Fc tag): […]

The target of a further test is T8, Ig2 domain (mouse, UniProt Q8R2Y2).
T8 construct: immunoglobulin domain 2 alone; also called Murine MCAM domain 2 (Ig2)
T8 sequence (Fc fusion chain, looked up): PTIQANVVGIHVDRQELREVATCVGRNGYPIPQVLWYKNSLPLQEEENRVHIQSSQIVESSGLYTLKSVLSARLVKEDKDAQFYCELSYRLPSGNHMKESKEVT
The test can be described thus: ForteBio Octet Red, anti-human IgG Fc biosensor loaded with the Ig2 domain hFc protein, dipped into clone 17 or SP2 media.
Excerpt: as §3, §4

B1: Recombinant human Fc-tagged MCAM IgG1-2A (Fc fusion)
chain: PRVAGVPGEAEQPAPELVEVEVGSTALLKCGLSQSQGNLSHVDWFSVHKEKRTLIFRVRQGQGQSEPGEYEQRLSLQDRGATLALTQVTPQDERIFLCQGKRPRSQEYRIQLRVYKAPEEPNIQVNPLGIPVNSKEPEEVATCVGRNGYPIPQVIWYKNGRPLKEEKNRVHIQSSQTVESSGLYTLQSILKAQLVKEDKDAQFYCELNYRLPSGNHMKESREVT
notes: also called human MCAM IgG1-2A; MCAM Fc domains 1 and 2; not shown: human Fc tag
As for B1, in test [1], the equilibrium dissociation constant (Kd) is 60 nM. In addition, in test [2], the binding result is given as “no binding (tested: 5-175 nM)”.

B2: clone 17 monoclonal antibody (rat anti-MCAM) (antibody, V domains shown)
VH: EVQLVESGGGLVQPGRSLKLSCAASGFTFSNYYMAWVRQAPTKGLEWVASISFEGNRNHYGDSVKGRITISRDNAKSTLYLQMTSLRPEDTATYYCARHRGYSTNFYHDVLDAWGQGALVTVSS
VL: DVQMTQSPSYLATSPGESVSISCKASKNIDTYLAWYQEKPGKTNKLLIYSGSTLQSGTPSRFSGSGSGTDFTLTIRNLESEDFAVYYCQQHNEYPLTFGSGTKLEIKR
notes: Rat monoclonal from a hybridoma (Lou/M rats immunized with murine MCAM-Fc); also called anti-MCAM clone 17
B2: the binding result is listed as “binds” in test [3]; “binds” in test [4]; “binds” in test [5]; “binds” in test [6]; “binds” in test [7]; “no binding (tested: 5 ug/ml)” with Ig2 domain.
